Measurements: PMC4915977 (Current biology : CB, 2016)

B1: Myc-tagged Mst1, full-length (1-487) (natural protein, UniProt Q13043 1-487, looked up)
chain: METVQLRNPPRRQLKKLDEDSLTKQPEEVFDVLEKLGEGSYGSVYKAIHKETGQIVAIKQVPVESDLQEIIKEISIMQQCDSPHVVKYYGSYFKNTDLWIVMEYCGAGSVSDIIRLRNKTLTEDEIATILQSTLKGLEYLHFMRKIHRDIKAGNILLNTEGHAKLADFGVAGQLTDTMAKRNTVIGTPFWMAPEVIQEIGYNCVADIWSLGITAIEMAEGKPPYADIHPMRAIFMIPTNPPPTFRKPELWSDNFTDFVKQCLVKSPEQRATATQLLQHPFVRSAKGVSILRDLINEAMDVKLKRQESQQREVDQDDEENSEEDEMDSGTMVRAVGDEMGTVRVASTMTDGANTMIEHDDTLPSQLGTMVINAEDEEEEGTMKRRDETMQPAKPSFLEYFEQKEKENQINSFGKSVPGPLKNSSDWKIPQDGDYEFLKSWTVEDLQKRLLALDPMMEQEIEEIRQKYQSKRQPILDAIEAKKRRQQNF

Assays:
[1] = target: Mst1 SARAH domain with a C-terminal Cys, AEDANS-labelled (UniProt Q13043); assay: FRET or BRET
[2] = target: Mst2 SARAH domain with a C-terminal Cys, AEDANS-labelled (UniProt Q13188); assay: FRET or BRET
[3] = target: T1, HA-tagged Mst2, full-length (UniProt Q13188 1-491); assay: co-IP
T1 sequence (looked up): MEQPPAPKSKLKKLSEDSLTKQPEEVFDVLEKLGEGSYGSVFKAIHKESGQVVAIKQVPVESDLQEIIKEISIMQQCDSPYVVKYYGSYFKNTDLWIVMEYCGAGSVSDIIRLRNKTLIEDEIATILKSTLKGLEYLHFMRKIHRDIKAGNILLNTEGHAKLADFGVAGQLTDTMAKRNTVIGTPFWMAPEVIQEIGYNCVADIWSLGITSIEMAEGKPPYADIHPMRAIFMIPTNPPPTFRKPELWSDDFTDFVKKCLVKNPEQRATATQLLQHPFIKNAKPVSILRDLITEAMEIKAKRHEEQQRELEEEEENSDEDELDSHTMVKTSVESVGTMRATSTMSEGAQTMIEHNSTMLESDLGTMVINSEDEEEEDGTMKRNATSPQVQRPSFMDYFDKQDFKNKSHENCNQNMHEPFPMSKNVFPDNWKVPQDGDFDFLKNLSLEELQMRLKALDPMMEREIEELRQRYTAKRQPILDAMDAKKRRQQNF

Molecule	Kd [2]	also measured
Mst1 SARAH domain with a C-terminal Cys, AEDANS-labelled (from UniProt Q13043 433-480) (domain or fragment)	–	Kd [1]: 6.5 µM
Mst2-LW SARAH domain, unlabeled (from UniProt Q13188 437-484) (domain or fragment)	4.3 µM	–
Mst1 SARAH domain, unlabeled (from UniProt Q13043 433-480) (domain or fragment)	0.72 µM	–
B1	–	level of heterodimers relative to homodimers [3]: ~60%
